Here are results for five compounds from paper PMC8466755, “GPCR Pharmacological Profiling of Aaptamine from the Philippine Sponge Stylissa sp. Extends Its Therapeutic Potential for Noncommunicable Diseases” (Molecules, 2021).

Assay [1] has as its target delta opioid receptor (δ-OR, OPRD1). More on the design: method as in PMID 27744679. The conditions noted are these: calcium mobilization pathway; read-out: EC50 agonist, delta opioid receptor; cited from earlier work.
The next assay addresses T1, CCR3 (Homo sapiens, UniProt P51677).
T1 sequence (P51677 1-355): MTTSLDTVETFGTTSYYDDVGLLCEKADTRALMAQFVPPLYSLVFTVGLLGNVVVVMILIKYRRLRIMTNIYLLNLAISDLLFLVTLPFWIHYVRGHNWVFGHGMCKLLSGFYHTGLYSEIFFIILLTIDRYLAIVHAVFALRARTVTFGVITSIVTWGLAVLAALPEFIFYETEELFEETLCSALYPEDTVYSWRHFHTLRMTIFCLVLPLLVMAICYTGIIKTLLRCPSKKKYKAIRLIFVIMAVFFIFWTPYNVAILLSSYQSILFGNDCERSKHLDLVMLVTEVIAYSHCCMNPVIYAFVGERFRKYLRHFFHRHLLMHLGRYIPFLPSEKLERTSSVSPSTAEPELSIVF
Briefly: PathHunter β-arrestin assay, positive allosteric modulation (PAM) mode. Type of assay: cell-based. The conditions noted are these: control agonist; read-out: EC50 of positive control ligand. How it is done:
(§1) Hit validation was performed by subjecting the aaptamine to an agonist, antagonist, and positive allosteric modulation (PAM) secondary screen utilizing thirteen GPCR biosensor assays (Arrestin) against the following targets: ADRA2A, ADRA2C, ADRB2, CCR1, CCR3, CXCR3, CXCR7, DRD2L, DRD2S, DRD4, HTR1E, OPRK1, and SSTR1. The assays were performed at 10-point concentrations using three-fold serial dilutions in duplicate. For all the assay formats, the final assay vehicle concentration was 1%.
(§2) For PAM assays, the cells were preincubated with the sample followed by agonist induction at the EC20 concentration. To the cells, 5 µL of 5X sample was added and incubated for 30 min at 37 °C or room temperature. Following the incubation period, 5 µL of the 6X EC20 agonist prepared in an assay buffer was added to the cells and incubated for 90 or 180 min at 37 °C or room temperature. The percent activity of aaptamine was calculated following this formula: % modulation = 100% × ((mean RLU of test sample − mean RLU of EC20 control)/(mean RLU of MAX control ligand − mean RLU of EC20 control)).

The target of another assay is T2, CXCR3 (Homo sapiens, UniProt P49682).
T2 sequence (P49682 1-368): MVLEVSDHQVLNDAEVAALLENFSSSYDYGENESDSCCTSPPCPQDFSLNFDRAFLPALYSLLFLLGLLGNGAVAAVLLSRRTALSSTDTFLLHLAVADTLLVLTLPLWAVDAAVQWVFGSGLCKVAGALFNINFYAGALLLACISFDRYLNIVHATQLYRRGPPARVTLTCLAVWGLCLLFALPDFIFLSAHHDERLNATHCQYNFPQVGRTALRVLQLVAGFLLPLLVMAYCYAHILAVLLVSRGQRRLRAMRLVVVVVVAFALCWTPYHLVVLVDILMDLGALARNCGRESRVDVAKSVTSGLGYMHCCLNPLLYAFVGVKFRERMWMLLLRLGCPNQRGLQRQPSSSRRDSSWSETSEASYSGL
Described as above. Type of assay: cell-based. The conditions noted are these: control agonist; read-out: EC50 of positive control ligand. How it is done:
as §1, §2

Another assay concerns the target T3, CCR1 (Homo sapiens, UniProt P32246).
T3 sequence (P32246 1-355): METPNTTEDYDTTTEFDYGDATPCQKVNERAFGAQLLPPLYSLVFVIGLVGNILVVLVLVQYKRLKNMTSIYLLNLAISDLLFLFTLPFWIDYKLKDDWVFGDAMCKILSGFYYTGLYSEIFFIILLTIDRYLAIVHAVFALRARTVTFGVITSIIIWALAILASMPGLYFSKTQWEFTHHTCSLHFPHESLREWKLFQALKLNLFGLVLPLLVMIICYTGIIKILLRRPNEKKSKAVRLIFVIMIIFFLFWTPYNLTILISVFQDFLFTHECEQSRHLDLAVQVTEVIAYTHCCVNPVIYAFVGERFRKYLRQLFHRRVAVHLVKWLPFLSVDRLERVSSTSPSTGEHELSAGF
As to the kind of experiment: PathHunter β-arrestin assay, agonist mode. Type of assay: cell-based. As to conditions: dose-response, agonist mode. How it is done: Aaptamine (20 µM) was profiled in gpcrMAX panel biosensor assays (in agonist and antagonist modes) against a panel of 168 GPCRs. The assay was performed by DiscoverX Corporation (Fremont, CA) using PathHunter β -arrestin enzyme fragment complementation (EFC) technology, in a similar way to that described elsewhere. The PathHunter cell lines were taken from freezer stocks according to standard procedures. A total of 20 µL of cells were seeded into white 384-well plates and incubated at 37 °C for the appropriate time prior to testing.
For agonist determination, aaptamine was incubated with PathHunter cell lines to induce a response. To increase the concentration, intermediate dilution from 20 µM of aaptamine was performed to generate a 5X sample in an assay buffer. Then, 5 µL of 5X sample was added to the plate with PathHunter cells and incubated for 90 or 180 min at 37 °C or room temperature. The percentage activity of aaptamine was calculated following this formula: % activity = 100% × (mean RLU of test sample − mean RLU of vehicle control)/(mean MAX control ligand − mean RLU of vehicle control).
as §1

`COC1=Cc2ccnc3ccnc(c23)C1=O` [demethyl(oxy)-aaptamine]: in assay [1], the EC50 is 2300 nM.
For the compound “CCL3: ligand used as positive control for CCR3”, in the assay with CCR3, the EC50 was 3 nM.
Regarding “CXCL11: ligand used as positive control for CXCR3”, the EC50 with CXCR3 worked out at 6.7 nM.
With `COc1cc2ccnc3c2c(c1O)NC=C3` [9-demethyl aaptamine], the EC50 in assay [1] was 4100 nM.
In the assay with CCR1, “CCL13: ligand used as positive control for CCR1” yielded an EC50 of 26 nM.
